# Values quoted from earlier work as cited in paper PMC4271846.
# Biological target: tau (Homo sapiens) (UniProt P10636)
# Experiment: SPR
substance,measurement,value
tau (from UniProt P10636),Kd,46 µM
